Measured values from the supplement of paper PMC11246515.
± gives the standard deviation of the averaged measurements.

Experiment: total protein half-life in vivo (active degradation + dilution); higher = more stable protein
[1] = E. coli NCM3722 delta-clpP delta-lon delta-hslV, growth: N-lim chemostat, doubling time 6 h
[2] = E. coli NCM3722 delta-hslV, growth: N-lim chemostat, doubling time 6 h
[3] = E. coli NCM3722 delta-lon, growth: N-lim chemostat, doubling time 6 h
[4] = E. coli NCM3722 delta-clpP, growth: N-lim chemostat, doubling time 6 h
[5] = E. coli NCM3722 delta-smpB, growth: N-lim chemostat, doubling time 6 h
[6] = wild type E. coli NCM3722, growth: C-lim chemostat, doubling time 3 h
[7] = wild type E. coli NCM3722, growth: C-lim chemostat, doubling time 6 h
[8] = wild type E. coli NCM3722, growth: C-lim chemostat, doubling time 12 h
[9] = wild type E. coli NCM3722, growth: N-lim chemostat, doubling time 6 h
[10] = wild type E. coli NCM3722, growth: N-lim chemostat, doubling time 12 h
[11] = wild type E. coli NCM3722, growth: P-lim chemostat, doubling time 6 h
[12] = wild type E. coli NCM3722, growth: P-lim chemostat, doubling time 12 h

Row | Sequence | total protein half-life in vivo [1] [h] | total protein half-life in vivo [2] [h] | total protein half-life in vivo [3] [h] | total protein half-life in vivo [4] [h] | total protein half-life in vivo [5] [h] | total protein half-life in vivo [6] [h] | total protein half-life in vivo [7] [h] | total protein half-life in vivo [8] [h] | total protein half-life in vivo [9] [h] | total protein half-life in vivo [10] [h] | total protein half-life in vivo [11] [h] | total protein half-life in vivo [12] [h]
1 | MIELVIVSRLLEYPDAALWQHQQEMFEAIAASKNLPKEDAHALGIFLRDLTTMDPLDAQAQYSELFDRGRATSLLLFEHVHGESRDRGQAMVDLLAQYEQHGLQLNSRELPDHLPLYLEYLAQLPQSEAVEGLKDIAPILALLSARLQQRESRYAVLFDLLLKLANTAIDSDKVAEKIADEARDDTPQALDAVWEEEQVKFFADKGCGDSAITAHQRRFAGAVAPQYLNITTGGQH [P0AF26] | 3.83 ± 0.37 | 0.814 | 2.04 ± 0.028 | – | – | – | – | – | – | – | – | –
2 | MIEVKHLKTLQALRNCGSLAAAAATLHQTQSALSHQFSDLEQRLGFRLFVRKSQPLRFTPQGEILLQLANQVLPQISQALQACNEPQQTRLRIAIECHSCIQWLTPALENFHKNWPQVEMDFKSGVTFDPQPALQQGELDLVMTSDILPRSGLHYSPMFDYEVRLVLAPDHPLAAKTRITPEDLASETLLIYPVQRSRLDVWRHFLQPAGVSPSLKSVDNTLLLIQMVAARMGIAALPHWVVESFERQGLVVTKTLGEGLWSRLYAAVRDGEQRQPVTEAFIRSARNHACDHLPFVKSAERPTYDAPTVRPGSPARL [P0A9F9] | 5.1817 ± 0.0019 | 0.933 ± 0.25 | 2.88 ± 0.57 | 1.5 ± 0.033 | 1.1 ± 0.09 | 0.811 ± 0.024 | 1.17 ± 0.17 | 1.08 ± 0.34 | 1.14 ± 0.14 | 1.81 ± 0.27 | 0.609 | 1.87
3 | MIFSDWPWRHWRQVRGETIALRLNDEQLNWRELCARVDELASGFAVQGVVEGSGVMLRAWNTPQTLLAWLALLQCGARVLPVNPQLPQPLLEELLPNLTLQFALVPDGENTFPALTSLHIQLVEGAHAATWQPTRLCSMTLTSGSTGLPKAAVHTYQAHLASAQGVLSLIPFGDHDDWLLSLPLFHVSGQGIMWRWLYAGARMTVRDKQPLEQMLAGCTHASLVPTQLWRLLVNRSSVSLKAVLLGGAAIPVELTEQAREQGIRCFCGYGLTEFASTVCAKEADGLADVGSPLPGREVKIVNNEVWLRAASMAEGYWRNGQLVSLVNDEGWYATRDRGEMHNGKLTIVGRLDNLFFSGGEGIQPEEVERVIAAHPAVLQVFIVPVADKEFGHRPVAVMEYDHESVDLSEWVKDKLARFQQPVRWLTLPPELKNGGIKISRQALKEWVQRQQ | – | 3.92 | – | 4.96 | – | 3.2 | > 8 | 11.3 ± 1.4 | 4.4 | – | 6.327 ± 0.016 | 10.3 ± 1
4 | MIFSVDKVRADFPVLSREVNGLPLAYLDSAASAQKPSQVIDAEAEFYRHGYAAVHRGIHTLSAQATEKMENVRKRASLFINARSAEELVFVRGTTEGINLVANSWGNSNVRAGDNIIISQMEHHANIVPWQMLCARVGAELRVIPLNPDGTLQLETLPTLFDEKTRLLAITHVSNVLGTENPLAEMITLAHQHGAKVLVDGAQAVMHHPVDVQALDCDFYVFSGHKLYGPTGIGILYVKEALLQEMPPWEGGGSMIATVSLSEGTTWTKAPWRFEAGTPNTGGIIGLGAALEYVSALGLNNIAEYEQNLMHYALSQLESVPDLTLYGPQNRLGVIAFNLGKHHAYDVGSFLDNYGIAVRTGHHCAMPLMAYYNVPAMCRASLAMYNTHEEVDRLVTGLQRIHRLLG | 3.84 ± 0.34 | 3.39 ± 0.22 | 3.44 ± 0.05 | 3.43 ± 0.26 | 3.41 ± 0.12 | 3.19 ± 0.48 | – | 8.7 ± 0.18 | 3.38 ± 0.26 | 5.21 ± 0.034 | 6.38 ± 0.54 | 11.3 ± 1.4
5 | MIGRLLRGGFMTAIYAYLYIPIIILIVNSFNSSRFGINWQGFTTKWYSLLMNNDSLLQAAQHSLTMAVFSATFATLIGSLTAVALYRYRFRGKPFVSGMLFVVMMSPDIVMAISLLVLFMLLGIQLGFWSLLFSHITFCLPFVVVTVYSRLKGFDVRMLEAAKDLGASEFTILRKIILPLAMPAVAAGWVLSFTLSMDDVVVSSFVTGPSYEILPLKIYSMVKVGVSPEVNALATILLVLSLVMVIASQLIARDKTKGNTGDVK [P0AFK6] | 5.93 | 5.12 | 5.66 | 6.54 | 5.65 ± 0.13 | 3.13 ± 0.76 | – | 14 | 6.23 ± 0.36 | 13.3 ± 0.85 | 6.269 ± 0.021 | 10.5 ± 2.2
6 | MIGSLTARIFAIFWLTLALVLMLVLMLPKLDSRQMTELLDSEQRQGLMIEQHVEAELANDPPNDLMWWRRLFRAIDKWAPPGQRLLLVTTEGRVIGAERSEMQIIRNFIGQADNADHPQKKKYGRVELVGPFSVRDGEDNYQLYLIRPASSSQSDFINLLFDRPLLLLIVTMLVSTPLLLWLAWSLAKPARKLKNAADEVAQGNLRQHPELEAGPQEFLAAGASFNQMVTALERMMTSQQRLLSDISHELRTPLTRLQLGTALLRRRSGESKELERIETEAQRLDSMINDLLVMSRNQQKNALVSETIKANQLWSEVLDNAAFEAEQMGKSLTVNFPPGPWPLYGNPNALESALENIVRNALRYSHTKIEVGFAVDKDGITITVDDDGPGVSPEDREQIFRPFYRTDEARDRESGGTGLGLAIVETAIQQHRGWVKAEDSPLGGLRLVIWLPLYKRS [P0AE82] | 6.5 ± 0.57 | – | 5.674 ± 0.024 | 6.88 ± 0.076 | 5.86 ± 0.35 | 2.971 ± 0.0099 | 5.92 ± 0.31 | 9.91 ± 1.8 | 6.07 ± 0.074 | 12.8 ± 0.79 | 5.98 ± 0.15 | 11.8 ± 0.38
7 | MIHAFIKKGCFQDSVSLMIISRKLSESENVDDVSVMMGTPANKALLDTTGFWHDDFNNATPNDICVAIRSEAADAGIAQAIMQQLEEALKQLAQGSGSSQALTQVRRWDSACQKLPDANLALISVAGEYAAELANQALDRNLNVMMFSDNVTLEDEIQLKTRAREKGLLVMGPDCGTSMIAGTPLAFANVMPEGNIGVIGASGTGIQELCSQIALAGEGITHAIGLGGRDLSREVGGISALTALEMLSADEKSEVLAFVSKPPAEAVRLKIVNAMKATGKPTVALFLGYTPAVARDENVWFASSLDEAARLACLLSRVTARRNAIAPVSSGFICGLYTGGTLAAEAAGLLAGHLGVEADDTHQHGMMLDADSHQIIDLGDDFYTVGRPHPMIDPTLRNQLIADLGAKPQVRVLLLDVVIGFGATADPAASLVSAWQKACAARLDNQPLYAIATVTGTERDPQCRSQQIATLEDAGIAVVSSLPEATLLAAALIHPLSPAAQQHTPSLLENVAVINIGLRSFALELQSASKPVVHYQWSPVAGGNKKLARLLERLQ | – | – | – | – | – | 2.65 | 4.54 | – | – | – | – | –
8 | MIHSSVKRWGNSPAVRIPATLMQALNLNIDDEVKIDLVDGKLIIEPVRKEPVFTLAELVNDITPENLHENIDWGEPKDKEVW [P0AE72] | 5.19 ± 0.15 | 2.17 | 3.17 | 2.31 ± 0.28 | 2.35 | – | 5.66 | – | 1.94 | 5.05 ± 2.4 | 1.3 | 4.48
